Measurements as given in patent US20240084041A1.

Biological target: MET on NCI-H596 cells (MET exon14 skip mutation) (human) (UniProt P08581)
Assay: cell-based or functional assay

Relative Cell Growth (n = 3), NCI-H596 in soft agar, 100 ng/mL, two weeks (relative to control (no treatment)): 7.88
Substance: hepatocyte growth factor (HGF) (from UniProt P14210 32-728) (ligand)
